Test results as given in article PMC11812572 (2025).
One block for each binder: values may come before it.

Assays:
[1] = molecular target: T1, recombinant human cytoplasmic dynein 1 complex with mEGFP fused to its heavy chain, mEGFP-dynein (human, UniProt Q14204 1-4646; O43237-1 1-492; P63172 1-113; Q9NP97-1 1-96; P63167 1-89); assay: apparent, from TIRF dynein activation (run frequency); with 14 nM dynactin and 200 nM NuMA^N-term
[2] = molecular target: T1, recombinant human cytoplasmic dynein 1 …; assay: apparent, from TIRF dynein activation (run frequency); with 14 nM dynactin and 100 nM Lis1

- Kd [1]: 148 nM
B1: Lis1 (protein)
chain: MVLSQRQRDELNRAIADYLRSNGYEEAYSVFKKEAELDVNEELDKKYAGLLEKKWTSVIRLQKKVMELESKLNEAKEEFTSGGPLGQKRDPKEWIPRPPEKYALSGHRSPVTRVIFHPVFSVMVSASEDATIKVWDYETGDFERTLKGHTDSVQDISFDHSGKLLASCSADMTIKLWDFQGFECIRTMHGHDHNVSSVAIMPNGDHIVSASRDKTIKMWEVQTGYCVKTFTGHREWVRMVRPNQDGTLIASCSNDQTVRVWVVATKECKAELREHEHVVECISWAPESSYSSISEATGSETKKSGKPGPFLLSGSRDKTIKMWDVSTGMCLMTLVGHDNWVRGVLFHSGGKFILSCADDKTLRVWDYKNKRCMKTLNAHEHFVTSLDFHKTAPYVVTGSVDQTVKVWECR
modifications: full-length human Lis1; N-terminal His6-TEV tag (unlabelled construct) or mCherry fusion left out; homodimer by general knowledge, copy number not printed in the text given

- Kd [2]: 51 nM
B2: AF546- or AF647-labelled SNAP-tagged human NuMA N-terminal fragment (first 705 aa), NuMA^N-term (domain or fragment)
chain: MTLHATRGAALLSWVNSLHVADPVEAVLQLQDCSIFIKIIDRIHGTEEGQQILKQPVSERLDFVCSFLQKNRKHPSSPECLVSAQKVLEGSELELAKMTMLLLYHSTMSSKSPRDWEQFEYKIQAELAVILKFVLDHEDGLNLNEDLENFLQKAPVPSTCSSTFPEELSPPSHQAKREIRFLELQKVASSSSGNNFLSGSPASPMGDILQTPQFQMRRLKKQLADERSNRDELELELAENRKLLTEKDAQIAMMQQRIDRLALLNEKQAASPLEPKELEELRDKNESLTMRLHETLKQCQDLKTEKSQMDRKINQLSEENGDLSFKLREFASHLQQLQDALNELTEEHSKATQEWLEKQAQLEKELSAALQDKKCLEEKNEILQGKLSQLEEHLSQLQDNPPQEKGEVLGDVLQLETLKQEAATLAANNTQLQARVEMLETERGQQEAKLLAERGHFEEEKQQLSSLITDLQSSISNLSQAKEELEQASQAHGARLTAQVASLTSELTTLNATIQQQDQELAGLKQQAKEKQAQLAQTLQQQEQASQGLRHQVEQLSSSLKQKEQQLKEVAEKQEATRQDHAQQLATAAEEREASLRERDAALKQLEALEKEKAAKLEILQQQLQVANEARDSAQTSVTQAQREKAELSRKVEELQACVETARQEQHEAQAQVAELELQLRSEQQKATEKERVAQEKDQLQEQLQ
modifications: SNAP-tag labelled with SNAP-Surface Alexa Fluor 546 or SNAP-Surface Alexa Fluor 647
